In PMC3948214 (Biochemistry, 2013):

Legend:
[1] = biological target: HpFabZ (Helicobacter pylori) (UniProt B5Z920); test: SPR; settings: cited from earlier work
[2] = biological target: the molecule itself; test: crystal structure

Chain of HpFabZ (Helicobacter pylori) (B5Z920 whole entry): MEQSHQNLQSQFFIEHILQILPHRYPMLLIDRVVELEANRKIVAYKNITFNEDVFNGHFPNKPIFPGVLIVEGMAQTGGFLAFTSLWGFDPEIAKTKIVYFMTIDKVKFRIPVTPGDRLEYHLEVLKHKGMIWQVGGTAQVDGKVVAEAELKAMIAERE

For HpACP (from UniProt B5Z6T1), the Kd [1] is given as 10 nM.

B1: RifDH10, the dehydratase domain from the terminal module (module 10) of the rifamycin polyketide synthase (domain or fragment, Amycolatopsis mediterranei, UniProt O54593 2569-2872, looked up)
chain: ADTASDAVSLGLAGADHPLLGAVVQLPQSDGLVFTSRLSLRSHPWLADHAVRDVVIVPGTGLVELAVRAGDEAGCPVLDELVIEAPLVVPRRGGVRVQVALGGPADDGSRTVDVFSLREDADSWLRHATGVLVPENRPRGTAAFDFAAWPPPEAKPVDLTGAYDVLADVGYGYGPTFRAVRAVWRRGSGNTTETFAEIALPEDARAEAGRFGIHPALLDAALHSTMVSAAADTESYGDEVRLPFAWNGLRLHAAGASVLRVRVAKPERDSLSLEAVDESGGLVVTLDSLVGRPVSNDQLTTAAG
B1: binds [2].
